Series [1] has as its target Rv3066 regulator, full-length, with a 6xHis tag at the C-terminus (Mycobacterium tuberculosis strain H37Rv) (UniProt I6X658). As to the kind of experiment: crystal structure.
For series [2], the target named is T1, Rv3066 (TetR-family regulator) (Mycobacterium tuberculosis H37Rv) (UniProt I6X658).
T1 sequence: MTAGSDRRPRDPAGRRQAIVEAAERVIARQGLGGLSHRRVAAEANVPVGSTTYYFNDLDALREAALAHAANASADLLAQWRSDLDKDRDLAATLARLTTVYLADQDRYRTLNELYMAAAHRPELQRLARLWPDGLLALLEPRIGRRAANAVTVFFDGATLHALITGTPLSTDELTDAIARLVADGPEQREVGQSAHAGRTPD
The series can be described thus: DNase I footprinting.

In general, stoichiometry N refers to a count of units in the complex or per binding partner. “Rv3066 regulator, full-length, with a 6xHis tag at the C-terminus (from UniProt I6X658 1-202) (natural protein)”: the stoichiometry N in series [1] stood at 2.

As to “TCGAGATCTTTCACCATGACACGACGTTACGGGGATCGACCGCGCGAACGCTGGGCGGATTTTGTCTCCCACCGGTGTGCCTACTCACGTGTGGACGCACGAGCCTCCTTTGTGTACATTTGTACACAAAGGAGGGGTCTTGATCTACCTATACCTCTTGTGCGCGATCTTCGCGGAAGTGGTGGCAACCAGCCTGCTCAAAAGCACGGAAGGGTTCACTCGGTTG (double strand) [226-bp mmr promoter probe (IR1, IR2 removed)]”, the binding entry in series [2] was “binds”.
